Reference: US9029508 (dated 2015)
“And” between values parts separate entries of the source, which are not always exact repeats. Equal entries are not always repeated. Where two headings read alike, the source gives them in different places.

Columns and labels:
IGF1R [1] = target: T1, IGF1R (human, UniProt P08069); assay: ELISA
IGF1R [2] = target: T1, IGF1R; assay: ELISA; remark: listed apart in the source
IGF2 [3] = target: T2, IGF2 (human, UniProt P01344); assay: SPR
IGF1 [4] = target: T3, IGF1 (human, UniProt P05019); assay: ELISA
IGF2 [5] = target: T2, IGF2; assay: ELISA
IGF1 [6] = target: T3, IGF1; assay: ELISA; remark: listed apart in the source
IGF2 [7] = target: T2, IGF2; assay: ELISA; remark: listed apart in the source
ErbB3 [8] = target: T4, ErbB3 (human, UniProt P21860); assay: ELISA
ErbB3 [9] = target: T4, ErbB3; assay: ELISA; remark: listed apart in the source
ErbB3 [10] = target: T4, ErbB3; assay: SPR
DLL4 [11] = target: T5, DLL4 (human, UniProt Q9NR61); assay: competition
DLL4 [12] = target: T5, DLL4; assay: ELISA
DLL4 [13] = target: T5, DLL4; assay: SPR
HGF [14] = target: T6, HGF (human, UniProt P14210); assay: ELISA
HGF [15] = target: T6, HGF; assay: SPR
HGF [16] = target: T6, HGF; assay: competition

T6 sequence (P14210 32-728): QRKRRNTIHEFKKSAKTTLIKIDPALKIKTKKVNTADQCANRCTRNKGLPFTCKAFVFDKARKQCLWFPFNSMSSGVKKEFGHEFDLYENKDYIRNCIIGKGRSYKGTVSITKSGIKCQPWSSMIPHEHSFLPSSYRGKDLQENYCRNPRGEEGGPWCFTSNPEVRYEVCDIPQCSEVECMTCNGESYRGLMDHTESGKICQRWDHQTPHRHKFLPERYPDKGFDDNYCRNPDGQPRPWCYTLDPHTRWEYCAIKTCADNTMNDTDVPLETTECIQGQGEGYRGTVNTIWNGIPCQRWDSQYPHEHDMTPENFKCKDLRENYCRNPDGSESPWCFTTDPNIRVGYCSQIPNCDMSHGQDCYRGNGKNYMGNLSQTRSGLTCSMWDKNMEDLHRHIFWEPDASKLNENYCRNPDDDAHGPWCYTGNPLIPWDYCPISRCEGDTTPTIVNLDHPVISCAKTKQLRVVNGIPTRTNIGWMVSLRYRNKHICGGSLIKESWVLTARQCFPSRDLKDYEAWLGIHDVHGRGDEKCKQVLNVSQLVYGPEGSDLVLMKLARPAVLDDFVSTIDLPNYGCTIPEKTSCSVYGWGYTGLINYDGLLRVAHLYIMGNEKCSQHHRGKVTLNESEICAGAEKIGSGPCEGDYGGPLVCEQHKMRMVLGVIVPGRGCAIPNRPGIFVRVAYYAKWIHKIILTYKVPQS
T5 sequence (Q9NR61 27-524): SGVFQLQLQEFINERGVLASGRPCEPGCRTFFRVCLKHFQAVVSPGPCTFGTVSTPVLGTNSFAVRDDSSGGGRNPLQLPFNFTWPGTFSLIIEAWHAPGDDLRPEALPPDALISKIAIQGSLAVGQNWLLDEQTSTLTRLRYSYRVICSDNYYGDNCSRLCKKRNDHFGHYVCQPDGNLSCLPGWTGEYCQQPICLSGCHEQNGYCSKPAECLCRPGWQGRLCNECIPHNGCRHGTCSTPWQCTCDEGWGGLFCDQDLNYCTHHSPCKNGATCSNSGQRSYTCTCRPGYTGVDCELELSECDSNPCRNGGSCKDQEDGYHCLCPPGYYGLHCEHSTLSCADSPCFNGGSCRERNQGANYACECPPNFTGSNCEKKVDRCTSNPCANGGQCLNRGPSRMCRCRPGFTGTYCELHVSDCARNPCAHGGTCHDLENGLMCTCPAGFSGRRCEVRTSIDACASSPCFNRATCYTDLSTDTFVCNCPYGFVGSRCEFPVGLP

B1: DVD031 IGF1R arm (antibody, V domains shown)
VH: EVQLLESGGGLVQPGGSLRLSCTASGFTFSSYAMNWVRQAPGKGLEWVSAISGSGGTTFYADSVKGRFTISRDNSRTTLYLQMNSLRAEDTAVYYCAKDLGWSDSYYYYYGMDVWGQGTTVTVSS
VL: DIQMTQFPSSLSASVGDRVTITCRASQGIRNDLGWYQQKPGKAPKRLIYAASRLHRGVPSRFSGSGSGTEFTLTISSLQPEDFATYYCLQHNSYPCSFGQGTKLEIKR
modifications: DVD-Ig inner
EC50 (IGF1R [1]): 171 nM
EC50 (IGF1R [2]): 171 nM

B2: DVD021 IGF1R arm (antibody, V domains shown)
VH: EVQLLESGGGLVQPGGSLRLSCTASGFTFSSYAMNWVRQAPGKGLEWVSAISGSGGTTFYADSVKGRFTISRDNSRTTLYLQMNSLRAEDTAVYYCAKDLGWSDSYYYYYGMDVWGQGTTVTVSS
VL: DIQMTQFPSSLSASVGDRVTITCRASQGIRNDLGWYQQKPGKAPKRLIYAASRLHRGVPSRFSGSGSGTEFTLTISSLQPEDFATYYCLQHNSYPCSFGQGTKLEIKR
modifications: DVD-Ig inner
EC50 (IGF1R [1]): 135 nM
EC50 (IGF1R [2]): 135 nM

B3: DVD041 IGF1,2 arm (antibody, V domains shown)
VH: QVQLVQSGAEVKKPGASVKVSCKASGYTFTSYDINWVRQATGQGLEWMGWMNPNSGNTGYAQKFQGRVTMTRNTSISTAYMELSSLRSEDTAVYYCARDPYYYYYGMDVWGQGTTVTVSS
VL: QSVLTQPPSVSAAPGQKVTISCSGSSSNIENNHVSWYQQLPGTAPKLLIYDNNKRPSGIPDRFSGSKSGTSATLGITGLQTGDEADYYCETWDTSLSAGRVFGGGTKLTVLG
modifications: DVD-Ig inner
Kd (IGF2 [3]): < 0.0124 nM
EC50 (IGF1 [4]): 381 nM
EC50 (IGF2 [5]): 7340 nM
EC50 (IGF1 [6]): 381 nM
EC50 (IGF2 [7]): 7340 nM

B4: DVD042 IGF1,2 arm (antibody, V domains shown)
VH: QVQLVQSGAEVKKPGASVKVSCKASGYTFTSYDINWVRQATGQGLEWMGWMNPNSGNTGYAQKFQGRVTMTRNTSISTAYMELSSLRSEDTAVYYCARDPYYYYYGMDVWGQGTTVTVSS
VL: QSVLTQPPSVSAAPGQKVTISCSGSSSNIENNHVSWYQQLPGTAPKLLIYDNNKRPSGIPDRFSGSKSGTSATLGITGLQTGDEADYYCETWDTSLSAGRVFGGGTKLTVLG
modifications: DVD-Ig outer
Kd (IGF2 [3]): 0.000998 nM
EC50 (IGF1 [4]): 2.54 nM
EC50 (IGF2 [5]): 17.6 nM
EC50 (IGF1 [6]): 2.5 nM
EC50 (IGF2 [7]): 17.6 nM

B5: AB063 (antibody, V domains shown)
VH: EVQLVESGGGLVQPGGSLRLSCAASGFTFSIYSMNWVRQAPGKGLEWVSYISSSSSTIYYADSVKGRFTISRDNAKNSLYLQMNSLRDEDTAVYYCARDRGDFDAFDIWGQGTMVTVSS
VL: DIQMTQSPSSLSASVGDRVTITCQASQDITNYLNWYQQKPGKAPKLLIYDASNLETGVPSRFSGSGSGTDFTFTISSLQPEDIATYNCQQCENFPITFGQGTRLEIKR
EC50 (ErbB3 [8]): 0.67 nM
EC50 (ErbB3 [9]): 0.28 nM
Kd (ErbB3 [10]): 0.15 nM

B6: DVD306 ErbB3 arm (antibody, V domains shown)
VH: EVQLVESGGGLVQPGGSLRLSCAASGFTFSIYSMNWVRQAPGKGLEWVSYISSSSSTIYYADSVKGRFTISRDNAKNSLYLQMNSLRDEDTAVYYCARDRGDFDAFDIWGQGTMVTVSS
VL: DIQMTQSPSSLSASVGDRVTITCQASQDITNYLNWYQQKPGKAPKLLIYDASNLETGVPSRFSGSGSGTDFTFTISSLQPEDIATYNCQQCENFPITFGQGTRLEIKR
modifications: DVD-Ig inner
EC50 (ErbB3 [8]): > 10 nM
EC50 (ErbB3 [9]): 151 nM

B7: DVD305 ErbB3 arm (antibody, V domains shown)
VH: EVQLVESGGGLVQPGGSLRLSCAASGFTFSIYSMNWVRQAPGKGLEWVSYISSSSSTIYYADSVKGRFTISRDNAKNSLYLQMNSLRDEDTAVYYCARDRGDFDAFDIWGQGTMVTVSS
VL: DIQMTQSPSSLSASVGDRVTITCQASQDITNYLNWYQQKPGKAPKLLIYDASNLETGVPSRFSGSGSGTDFTFTISSLQPEDIATYNCQQCENFPITFGQGTRLEIKR
modifications: DVD-Ig outer
EC50 (ErbB3 [8]): 1.16 nM
EC50 (ErbB3 [9]): 0.44 nM
Kd (ErbB3 [10]): 0.0603 nM

B8: DVD299 ErbB3 arm (antibody, V domains shown)
VH: QVQLQQWGAGLLKPSETLSLTCAVYGGSFSGYYWSWIRQPPGKGLEWIGEINHSGSTNYNPSLKSRVTISVETSKNQFSLKLSSVTAADTAVYYCARDKWTWYFDLWGRGTLVTVSS
VL: not shown
modifications: DVD-Ig outer
EC50 (ErbB3 [9]): 1.96 nM
Kd (ErbB3 [10]): 0.82 nM

B9: AB062 (antibody, V domains shown)
VH: QVQLQQWGAGLLKPSETLSLTCAVYGGSFSGYYWSWIRQPPGKGLEWIGEINHSGSTNYNPSLKSRVTISVETSKNQFSLKLSSVTAADTAVYYCARDKWTWYFDLWGRGTLVTVSS
VL: not shown
EC50 (ErbB3 [8]): 0.26 nM
EC50 (ErbB3 [9]): 1.93 nM
Kd (ErbB3 [10]): 1.36 nM

B10: DVD258 DLL4 arm (antibody)
chain 1: EVQLVESGGGLVQPGGSLRLSCAASGFTFTDNWISWVRQAPGKGLEWVGYISPNSGFTYYADSVKGRFTISADTSKNTAYLQMNSLRAEDTAVYYCARDNFGGYFDYWGQGTLVTVSS
chain 2: DIQMTQSPSSLSASVGDRVTITCRASQDVSTAVAWYQQKPGKAPKLLIYSASFLYSGVPSRFSGSGSGTDFTLTISSLQPEDFATTYYCQQSYTGTVTFGQGTKVEIKR
modifications: DVD-Ig inner
IC50 (DLL4 [11]): 17.5 nM
EC50 (DLL4 [12]): 2.3 nM

B11: DVD257 DLL4 arm (antibody)
chain 1: EVQLVESGGGLVQPGGSLRLSCAASGFTFTDNWISWVRQAPGKGLEWVGYISPNSGFTYYADSVKGRFTISADTSKNTAYLQMNSLRAEDTAVYYCARDNFGGYFDYWGQGTLVTVSS
chain 2: DIQMTQSPSSLSASVGDRVTITCRASQDVSTAVAWYQQKPGKAPKLLIYSASFLYSGVPSRFSGSGSGTDFTLTISSLQPEDFATTYYCQQSYTGTVTFGQGTKVEIKR
modifications: DVD-Ig outer
IC50 (DLL4 [11]): 0.38 nM
EC50 (DLL4 [12]): 0.28 nM
Kd (DLL4 [13]): 0.234 nM

B12: DVD033 HGF arm (antibody, V domains shown)
VH: QVQLVESGGGLVKPGGSLRLSCAASGFTFSDYYMSWIRQAPGKGLEWVSYISSSGSTIYYADSVKGRFTISRDNAKNSLYLQMNSLRAEDTAVYYCARDEYNSGWYVLFDYWGQGTLVTVSS
VL: DIQMTQSPSSVSASVGDRVTITCRASQGISSWLAWYQQKPGKAPNLLIYEASSLQSGVPSRFGGSGSGTDFTLTISSLQPEDFATYYCQQANGFPWTFGQGTKVEIKR
modifications: DVD-Ig inner
EC50 (HGF [14]): 11.9 nM
Kd (HGF [15]): 0.31 nM
IC50 (HGF [16]): 8.7 nM

B13: DVD025 HGF arm (antibody, V domains shown)
VH: QVQLVESGGGLVKPGGSLRLSCAASGFTFSDYYMSWIRQAPGKGLEWVSYISSSGSTIYYADSVKGRFTISRDNAKNSLYLQMNSLRAEDTAVYYCARDEYNSGWYVLFDYWGQGTLVTVSS
VL: DIQMTQSPSSVSASVGDRVTITCRASQGISSWLAWYQQKPGKAPNLLIYEASSLQSGVPSRFGGSGSGTDFTLTISSLQPEDFATYYCQQANGFPWTFGQGTKVEIKR
modifications: DVD-Ig inner
EC50 (HGF [14]): 251 nM
Kd (HGF [15]): 0.746 nM
IC50 (HGF [16]): > 100 nM

B14: DVD034 HGF arm (antibody, V domains shown)
VH: QVQLVESGGGLVKPGGSLRLSCAASGFTFSDYYMSWIRQAPGKGLEWVSYISSSGSTIYYADSVKGRFTISRDNAKNSLYLQMNSLRAEDTAVYYCARDEYNSGWYVLFDYWGQGTLVTVSS
VL: DIQMTQSPSSVSASVGDRVTITCRASQGISSWLAWYQQKPGKAPNLLIYEASSLQSGVPSRFGGSGSGTDFTLTISSLQPEDFATYYCQQANGFPWTFGQGTKVEIKR
modifications: DVD-Ig outer
EC50 (HGF [14]): 0.27 nM
Kd (HGF [15]): 0.0215 nM
IC50 (HGF [16]): 0.34 nM

B15: AB012 (antibody, V domains shown)
VH: QVQLVESGGGLVKPGGSLRLSCAASGFTFSDYYMSWIRQAPGKGLEWVSYISSSGSTIYYADSVKGRFTISRDNAKNSLYLQMNSLRAEDTAVYYCARDEYNSGWYVLFDYWGQGTLVTVSS
VL: DIQMTQSPSSVSASVGDRVTITCRASQGISSWLAWYQQKPGKAPNLLIYEASSLQSGVPSRFGGSGSGTDFTLTISSLQPEDFATYYCQQANGFPWTFGQGTKVEIKR
EC50 (HGF [14]): 0.19 nM and 0.22 nM
Kd (HGF [15]): < 0.0284 nM
IC50 (HGF [16]): 0.18 nM
